From US6566088B1, “Prolyl-4-hydroxylases” (Board of Regents, The University of Texas System, priority 2001, dated 2003)
Substitutions are numbered along the chain they refer to. In names and notes the source's numbering stands.

B1: HPH 2: human HPH 1 paralog, Genbank AF229245; splice-variant in which residues 76-177 are omitted was used (protein)
chain: ANDSGGPGGPSPSERDRQYCELCGKMENLLRCSRCRSSFYCCKEHQRQDWKKHKLVCQGSEGALGHGVGPHQHSGPAPPAAVPPPRAGAREPRKAAARRDNASGDAAKGKVKAKPPADPAAAASPCRAAAGGQGSAVAAEAEPGKEEPPARSSLFQEKANLYPPSNTPGDALSPGGGLRPNGQTKPLPALKLALEYIVPCMNKHGICVVDDFLGKETGQQIGDEVRALHDTGKFTDGQLVSQKSDSSKDIRGDKITWIEGKEPGCETIGLLMSSMDDLIRHCNGKLGSYKINGRTKAMVACYPGNGTGYVRHVDNPNGDGRCVTCIYYLNKDWDAKVSGGILRIFPEGKAQFADIEPKFDRLLFFWSDRRNPHEVQPAYATRYAITVWYFDADERARAKVKYLTGEKGVRVELNKPSDSVGKDVF
modifications: left off: small tags and cut ends
B2: HPH 1: human HIF prolyl hydroxylase 1, SEQ ID NO:1, Genbank XM_012332 (protein)
chain: MPLGHIMRLDLEKIALEYIVPCLHEVGFCYLDNFLGEVVGDCVLERVKQLHCTGALRDGQLAGPRAGVSKRHLRGDQITWIGGNEEGCEAISFLLSLIDRLVLYCGSRLGKYYVKERSKAMVACYPGNGTGYVRHVDNPNGDGRCITCIYYLNKNWDAKLHGGILRIFPEGKSFIADVEPIFDRLLFFWSDRRNPHEVQPSYATRYAMTVWYFDAEERAEAKKKFRNLTRKTESALTED
modifications: human
B3: D137A: HPH 1 with Asp137 changed to alanine (protein)
chain: B2 chain with D137A
modifications: left off: small tags and cut ends
B4: H135A: HPH 1 with His135 changed to alanine (protein)
chain: B2 chain with H135A
modifications: left off: small tags and cut ends
B5: H196A: HPH 1 with His196 changed to alanine (protein)
chain: B2 chain with H196A
modifications: left off: small tags and cut ends

Tests used:
human HIF-1a ODD peptide = human HIF-1a ODD peptide (Homo sapiens, UniProt Q16665, M561A/M568A); assay: [35S]-pVHL pull-down prolyl hydroxylase assay with biotinylated HIF-1a ODD peptide; type: biochemical; settings: for prolyl hydroxylase activity (pVHL association with the biotinylated peptide): enzyme in vitro transcribed/translated in rabbit reticulocyte lysate, ascorbate, 2-oxoglutarate, FeSO4 present
[1] = tested on: HIF-1a activation of the HRE-driven reporter; assay: Hypoxia-responsive (HRE) luciferase reporter co-transfection in 293 cells; type: cell-based, human
From the text: To test whether these HPH enzymes represent part of the hypoxic response pathway in vivo we first co-transfected (21) human embryonic kidney 293 cells with a hypoxia-responsive luciferase reporter (22) and increasing amounts of a vector expressing human HIF-1a under the control of the constitutive CMV promoter. Forced overexpression of HIF-1a can overcome the degradation pathway, resulting in accumulation of the HIF transcription factor under normoxic conditions and subsequent induction of the HRE-containing HIF reporter gene (22). […] Mutation of His^135, Asp^137 or His^196 to alanine eliminated the interfering activity of HPH 1 in these transfection assays. […] Finally, the ability of HPH 1 to diminish induction of the HIF-responsive luciferase reporter was lost when cells were incubated in an atmosphere containing 0.5% O2.
21. Transfection experiments were performed as in (22) with DNA amounts indicated in the text. Western blot analysis using an antibody specific for the carboxy-terminal V5 tag was used to confirm expression of each polypeptide following transfection of 1 μg of each expression vector.

[2] = tested on: transfected cell cultures; assay: Visual inspection of cell cultures transfected with HPH 1 expression vector
[3] = tested on: CMV-driven luciferase reporter; assay: Constitutive CMV-driven luciferase reporter co-transfection; type: cell-based, human

Row | Molecule | prolyl hydroxylase activity (pVHL association with the biotinylated peptide) (human HIF-1a ODD peptide) | other results
1 | B1 | catalyze the hydroxylation | hydroxylation of the HIF-1a peptide substrate (human HIF-1a ODD peptide; enzyme expressed in bacterial cells and purified by affinity chromatography): able to hydroxylate
2 | B2 | able to enhance pVHL association | effect on induction of the HIF-dependent luciferase reporter ([1]; 293 cells, normoxic, 30 ng or 100 ng HIF-1a expression vector, 3 ng CMV-driven vector): able to attenuate; ability to diminish induction of the HIF-responsive luciferase reporter ([1]; atmosphere containing 0.5% O2): lost; programmed cell death [2]: no overt evidence of programmed cell death; effect on CMV-driven luciferase reporter expression [3]: did not attenuate
3 | B3 | eliminated the prolyl hydroxylase activity | 
4 | B4 | eliminated the prolyl hydroxylase activity | 
5 | B5 | eliminated the prolyl hydroxylase activity | 
